Assay results from article PMC13395437, “A single DNA methylation site regulates cell fate during Clostridioides difficile sporulation”.
Residue numbers refer to the chain shown, from its start.

B1: Me3* PspoIIE FP probe (dsDNA)
DNA 1: AAAACCGATTATGACAAATAAAATTACTCC
DNA 2: GGAGTAATTTTATTTGTCATAATCGGTTTT
B2: WT PspoIIE FP probe (dsDNA)
DNA 1: B1 DNA 1 with T19A
DNA 2: B1 DNA 2 with A12T

How the values were obtained:
[1] = molecular target: T1, Spo0A DNA-binding domain (Spo0A145-247-His6) (UniProt P52938); experiment: EMSA; conditions: FP: 1 nM dsDNA, 50 mM Tris-HCl pH 8, 100 mM KCl, 2.5 mM MgCl2, 0.2 mM DTT, 10% glycerol, 2 µg salmon sperm DNA, 10 min, RT; EMSA: 20 fmol DNA, 10 mM Tris-HCl …
T1 sequence: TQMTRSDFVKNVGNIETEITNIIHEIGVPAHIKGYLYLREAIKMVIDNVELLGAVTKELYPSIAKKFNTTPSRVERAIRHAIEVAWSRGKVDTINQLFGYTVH

[2] = molecular target: T2, Spo0A DNA-binding domain (Spo0A145-247-His6) (UniProt P52938 145-247); experiment: fluorescence polarization; FP: 1 nM dsDNA, 50 mM Tris-HCl pH 8, 100 mM KCl, 2.5 mM MgCl2, 0.2 mM DTT, 10% glycerol, 2 µg salmon sperm DNA, 10 min, RT; EMSA: 20 fmol DNA, 10 mM Tris-HCl pH 7.6, 1 mM EDTA, 50 mM NaCl, 1 mM DTT, 5% glycerol, 30 min, 37 C; conditions: protein: recombinant; tags: C-terminal His6; label: 6FAM on strand 1 (5' primer); blunt
T2 sequence: T1 sequence with I42M

Molecule	binding [1]	binding result [2]
CCTCCTCTTTTGTTTATATTAAGAATTGTAACAAAGAGGAGTAATTTTTTTTGTCATAATCGGTTTTAAAAATCAAAAAATATTAATACATTTTTTTTGACTTTTGACATATTAAGCCTTCCAAATTATCGTATTCACTTACGGTTATTTCTTCTATTTCTAATTTTTCCATTATTATATTCAATATTTTTACACCAGCAGTTATAATATCCGCACGTTTTTCTTGTAGCCCTTTTAAGTTCTTTTTATCAC (double strand) [WT PspoIIE EMSA fragment]	binds	
CCTCCTCTTTTGTTTATATTAAGAATTGTAACAAAGAGGAGTAATTTTATTTGTCATAATCGGTTTTAAAAATCAAAAAATATTAATACATTTTTTTTGACTTTTGACATATTAAGCCTTCCAAATTATCGTATTCACTTACGGTTATTTCTTCTATTTCTAATTTTTCCATTATTATATTCAATATTTTTACACCAGCAGTTATAATATCCGCACGTTTTTCTTGTAGCCCTTTTAAGTTCTTTTTATCAC (double strand) [Me3* PspoIIE EMSA fragment]	binds	
B1		binds
B2		binds
